Substitutions are numbered along the chain they refer to. Names may count otherwise.
T1: rat C1s (produced in house) (rat, UniProt Q6P6T1 16-688)
T1 construct: also called RaC1s
T1 sequence: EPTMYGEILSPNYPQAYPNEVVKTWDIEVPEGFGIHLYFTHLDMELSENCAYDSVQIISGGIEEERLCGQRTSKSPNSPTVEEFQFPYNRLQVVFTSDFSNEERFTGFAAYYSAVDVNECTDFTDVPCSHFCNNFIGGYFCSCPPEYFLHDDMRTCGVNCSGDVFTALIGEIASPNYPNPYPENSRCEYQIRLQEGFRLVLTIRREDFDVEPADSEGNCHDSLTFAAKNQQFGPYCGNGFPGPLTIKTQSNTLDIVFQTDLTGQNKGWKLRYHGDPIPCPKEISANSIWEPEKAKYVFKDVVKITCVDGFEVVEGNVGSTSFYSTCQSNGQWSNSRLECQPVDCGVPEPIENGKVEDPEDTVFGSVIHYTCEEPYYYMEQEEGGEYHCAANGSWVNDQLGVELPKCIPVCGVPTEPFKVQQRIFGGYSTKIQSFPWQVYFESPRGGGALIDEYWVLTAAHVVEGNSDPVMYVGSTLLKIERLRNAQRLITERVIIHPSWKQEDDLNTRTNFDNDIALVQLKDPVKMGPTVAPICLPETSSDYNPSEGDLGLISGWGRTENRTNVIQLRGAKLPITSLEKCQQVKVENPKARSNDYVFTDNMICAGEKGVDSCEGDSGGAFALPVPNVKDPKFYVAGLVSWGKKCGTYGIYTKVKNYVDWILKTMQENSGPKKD

T2: human C1s mutant M16 (R368H) (human, UniProt P09871 16-688)
T2 construct: The entry is the mutant itself
T2 sequence: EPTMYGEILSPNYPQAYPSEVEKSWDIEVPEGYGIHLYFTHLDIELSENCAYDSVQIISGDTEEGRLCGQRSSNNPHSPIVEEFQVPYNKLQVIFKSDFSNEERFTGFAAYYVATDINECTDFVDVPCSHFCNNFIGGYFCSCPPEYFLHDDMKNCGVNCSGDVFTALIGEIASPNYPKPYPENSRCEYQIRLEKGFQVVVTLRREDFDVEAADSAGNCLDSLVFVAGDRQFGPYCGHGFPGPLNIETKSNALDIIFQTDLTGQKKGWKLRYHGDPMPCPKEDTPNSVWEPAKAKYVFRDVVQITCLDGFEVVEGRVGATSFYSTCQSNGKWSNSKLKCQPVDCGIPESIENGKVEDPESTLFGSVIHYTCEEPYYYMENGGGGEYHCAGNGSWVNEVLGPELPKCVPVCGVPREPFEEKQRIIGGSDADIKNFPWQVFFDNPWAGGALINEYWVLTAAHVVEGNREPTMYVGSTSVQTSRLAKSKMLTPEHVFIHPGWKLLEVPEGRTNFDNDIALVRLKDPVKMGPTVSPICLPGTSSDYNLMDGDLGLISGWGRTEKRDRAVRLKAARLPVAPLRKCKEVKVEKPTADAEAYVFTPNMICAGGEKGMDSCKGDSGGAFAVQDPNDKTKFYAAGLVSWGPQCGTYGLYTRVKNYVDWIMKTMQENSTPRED

B1: Anti-C1s antibody hz2-7(H1L2) (antibody, V domains shown)
VH: EVQLLESGGGLVQPGGSLRLSCAASGFTFSNYFMNWVRQAPGKGLEWVSEIRLKFTNYATHYADSVKGRFTISRDDSKSTLYLQMNSLRAEDTAVYYCTRDYGSRNGYFDYWGQGTLVTVSS
VL: DIVMTQTPLSLPVTPGEPASISCRSSKSLLHSNGNTFLYWFLQKPGQSPQLLIYRMSNLASGVPDRFSGSGSGTDFTLKISRVEAEDVGVYYCMQHLEYPYTFGGGTKLEIKR
notes: Humanized, human IgG1 / kappa; also called hz2-7(1L2)
B2: Anti-C1s antibody 2-8 (antibody, V domains shown)
VH: EVQLQQSGAELVRPGALVKLSCKASGFNIKEYYMHWVKQRPEQGLEWIGWIDPENGDTIYDPKFQGKASITADTSSNTAYLQLSSLTSEDTAVYYCARSRLFFAYWGQGTLVTVSA
VL: DIVMTQSHKFMSTSVGDRVSFTCKASQDVRTAVDWYQQKPGQSPKLLIYSASYRYTGVPDRFTGTGSGTDFTFTISSVQAEDLAVYFCQQQYTTPYTFGGGTKLEIKT
notes: the HC/LC entries may hold it too; also called clone 2-8
B3: Anti-C1s antibody 2-7 (antibody, human IgG1, kappa, V domains shown)
VH: EVKLEESGGGLVPPGGSMKLSCVASGFTFSNYFMNWVRQSPEKGLEWVAEIRLKFTNYATHYAESVEGRFTISRDDSKSSVYLQMNNLRAEDTGIYYCTRDYGSRNGYFDYWGQGTTLTVSS
VL: DIVMTQAAPSVPVTPGESVSISCRSSKSLLHSNGNTFLYWFLQRPGQSPQLLIYRMSNLASGVPDRFSGSGSGTAFTLRVSRVEAEDVGIYYCMQHLEYPYTFGGGTKLEIKT
notes: the HC/LC entries may hold it too; also called clone 2-7
B4: Anti-C1s antibody hz2-8 (H1L2 G80A) (antibody, V domains shown)
VH: QVQLVQSGAEVKKPGASVKVSCKASGFNIKEYYMHWVRQAPEQGLEWMGWIDPENADTIYAQKFQGRVTITADTSTNTAYMELSSLRSEDTAVYYCARSRLFFAYWGQGTLVTVSS
VL: DIQMTQSPKSLSASVGDRVTITCRASQDVRTALDWYQQKPGQSPKLLIYSASYRYSGVPSRFSGSGSGTDFTLTISSLQPEDFATYYCQQQYTTPYTFGQGTKLEIKR
notes: Humanized variant with G80A in HC CDR2 (already in the entry), human IgG1 / kappa
B5: Anti-C1s antibody hz2-8 (H1L2 G80A/T82A) (antibody, V domains shown)
VH: B4 VH with T58A
VL: B4 VL
notes: Humanized variant with G80A and T82A in HC CDR2 (already in the entry), human IgG1 / kappa

Experiments:
[1] = biological target: T1, rat C1s (produced in house); assay: ELISA, plate coated with 200 ng/well RatC1s, OD450nm
Method: The next morning, plates were blocked with SuperBlock T20 blocking buffer (Thermo Scientific 37536) for 1 h with gentle shaking. Then, various concentrations of anti-C1s antibodies diluted in SuperBlock T20 blocking buffer were added to the plates and incubated for 1 h with gentle shaking. Mouse IgG (Sigma-Aldrich I5381) and Human IgG1 (BioXCell BP0297) were used as negative controls. The plates were washed before incubating with HRP conjugated secondary antibodies diluted in SuperBlock T20 blocking buffer (goat anti-mouse IgG (H+L) cross-adsorbed secondary antibody HRP (Invitrogen G-21040) or goat anti-human IgG antibody, HRP conjugate (Millipore AP309P)) for 1 h with gentle shaking. At last, the plates were washed and color developed with ELISA liquid substrate (Sigma-Aldrich), followed by stopping the reaction with addition of the same volume of […] 1M H₂SO₄. Bound antibody was measured by absorbance at OD₄₅₀ₙₘ.

[2] = biological target: T2, human C1s mutant M16 (R368H); assay: ELISA, plate coated with human C1s mutant M16: R368H, OD450nm
Method: ELISA was carried out by first coating 96-well plates with 200 ng/well of full-length or truncated C1s proteins overnight. The next morning, plates were blocked with SuperBlock T20 blocking buffer (Thermo Scientific 37536) for 1 h with gentle shaking. Then, various concentrations of anti-C1s antibodies diluted in SuperBlock T20 blocking buffer were added to the plates and incubated for 1 h with gentle shaking. Mouse IgG (Sigma-Aldrich 15381) and human IgG1 (BioXCell BP0297) were used as negative controls. The plates were washed before incubating with HRP conjugated secondary antibodies diluted in SuperBlock T20 blocking buffer (goat anti-mouse IgG (H+L) cross-adsorbed secondary antibody HRP (Invitrogen G-21040) or goat anti-human IgG antibody, HRP conjugate (Millipore AP309P)) for 1 h with gentle shaking. At last, the plates were washed and color developed with ELISA liquid HRP substrate (Sigma-Aldrich), followed by stopping the reaction with addition of 1M H₂SO₄ in the same volume as the ELISA liquid substrate. Bound antibody was measured by absorbance at OD₄₅₀ₙₘ.
Binding of anti-C1s antibodies to mutants M1-M20 of human C1s was measured by ELISA as described in Example 4, and results are shown in FIGS. 6B-6U. All anti-C1s humanized variants including hz2-7(H1L2), hz2-8(H1L2 G80A) and hz2-8(H1L2 G80A/T82A) maintained strong binding properties to the majority (16 out of 20) of C1s mutants including M1 (FIG. 6B), M2 (FIG. 6C), M3 (FIG. 6D). M4 (FIG. 6E), M7 (FIG. 6H), M8 (FIG. 6I), M10 (FIG. 6K), M11 (FIG. 6L), M12 (FIG. 6M), M13 (FIG. 6N), M15 (FIG. 6P), M16 (FIG. 6Q), M17 (FIG. 6R), M18 (FIG. 6S), M19 (FIG. 6T) and M20 (FIG. 6U).

| Binder | binding result [1] | EC50 [2] | EC50 [1] |
| --- | --- | --- | --- |
| B1 | no binding (tested: 1000 ng/ml (Log 3)) | 6 ng/mL |  |
| B2 |  |  | 63 ng/mL |
| B3 | no binding (tested: 1000 ng/ml (Log 3)) |  |  |
| B4 |  | 6 ng/mL |  |
| B5 |  | 9 ng/mL | 105 ng/mL |
